According to patent US20220242939A1 (BIOARCTIC, published 2022):
Like-named read-outs stand apart in the source and are kept apart here. Non-standard residues stand in square brackets, D forms with d. No end group written: not given here. Ahx = NCCCCCC(=O)O

T1: L198 N-terminal neo-epitope peptide LAGQPLQE-Acp-C (SEQ ID NO:54) conjugated to BSA (human, not fully specified (residue 10); printed as LAGQPLQE-Acp-C; also: C-terminal Cys conjugated to BSA carrier)
T1 construct: BSA carrier
T1 peptide: LAGQPLQE[Ahx]C

T2: L198 N-terminal neo-epitope peptide LAGQPL-Acp-C (SEQ ID NO:52) conjugated to BSA (human, not fully specified (residue 8); printed as LAGQPL-Acp-C; also: C-terminal Cys conjugated to BSA carrier)
T2 construct: BSA carrier; also called L198-BSA peptide
T2 peptide: LAGQPL[Ahx]C

T3: G200 N-terminal neo-epitope peptide GQPLQE-Acp-C (SEQ ID NO:50) conjugated to BSA (human, not fully specified (residue 8); printed as GQPLQE-Acp-C; also: C-terminal Cys conjugated to BSA carrier)
T3 construct: also called G200-BSA peptide; G200-peptide
T3 peptide: GQPLQE[Ahx]C

T4: A199 N-terminal neo-epitope peptide AGQPLQE-Acp-C (SEQ ID NO:55) conjugated to BSA (human, not fully specified (residue 9); printed as AGQPLQE-Acp-C; also: C-terminal Cys conjugated to BSA carrier)
T4 construct: BSA carrier
T4 peptide: AGQPLQE[Ahx]C

T5: A199 N-terminal neo-epitope peptide AGQPLQ-Acp-C (SEQ ID NO:51) conjugated to BSA (human, not fully specified (residue 8); printed as AGQPLQ-Acp-C; also: C-terminal Cys conjugated to BSA carrier)
T5 construct: BSA carrier; also called A199-BSA peptide
T5 peptide: AGQPLQ[Ahx]C

T6: negative control peptide AATVGSLAGQPLQER-Acp-C (SEQ ID NO:53) conjugated to BSA (human, not fully specified (residue 17); printed as AATVGSLAGQPLQER-Acp-C; also: C-terminal Cys conjugated to BSA carrier)
T6 construct: BSA carrier; also called 192-206 BSA-conjugated peptide
T6 peptide: AATVGSLAGQPLQER[Ahx]C


How the values were obtained:
[1] = molecular target: T1, L198 N-terminal neo-epitope peptide …; assay: direct ELISA after limiting dilution
[2] = molecular target: T7, recombinant C-terminal ApoE fragment L198-HIS (ApoE-L198-H299-10xHIS) (human, UniProt P02649 216-317); assay: direct ELISA, L198-HIS coated at 0.1 µM
T7 construct: also called L198-HIS fragment
Protocol: (§1) Selectivity evaluation of purified monoclonal antibodies by direct ELISA: The direct ELISA described below was used to evaluate the binding selectivity of the purified monoclonal antibodies produced in Example 14.
(§2) The screening was performed according to standard ELISA protocols. Briefly, 1 μg/ml solutions of BSA-conjugated neo-epitope peptides and negative control peptide, and 0.1 μM recombinant C-terminal ApoE fragment and full-length ApoE (Abcam, cat. no. ab50243) were prepared by dilution in PBS. 50 μl/well were added to an ELISA half-area 96 well microtiter plate, and the plate was sealed with adhesive sealer and incubated over night at 4° C. After discarding the solution, the plates were blocked with 150 μl/well of protein-free blocking solution (Pierce) for 1 h at room temperature with shake (600-900 rpm). The plates were washed four times with washing buffer containing 0.28 mM NaH₂PO₄, 2.5 mM Na₂HPO₄, 150 mM NaCl, 0.1% TWEEN®-20 and 0.0075% Kathon CG. Purified monoclonal antibodies of interest were 3-fold serially diluted with a starting dilution at 3 μg/ml (mixed 1:2 with dilution buffer (PBS with 0.1% BSA and 0.05% TWEEN®-20)). An anti-ApoE C-terminal antibody was used as a reference antibody (ApoE E-8 mouse monoclonal, Santa Cruz Biotechnology, cat. no. sc-393302). 50 μl/well were added into the ELISA plates and incubated for 2 h at room temperature with shake (600-900 rpm). The plates were washed four times as described previously. […] After another wash (as described previously), 50 μl/well of K-Blue® aqueous substrate (Neogen) were added, and the reaction was stopped after 5-15 min with 50 μl/well of 0.5 M H2504. The optical density at 450 nm was read using an ELISA reader (Tecan).

[3] = molecular target: T2, L198 N-terminal neo-epitope peptide …; assay: direct ELISA, L198-BSA peptide coated at 1 µg/ml
Protocol: as §1, §2

[4] = molecular target: T8, full-length ApoE in human brain extract from Alzheimer's disease patients (human, UniProt P02649 19-317); assay: Western blot of AD brain RIPA 2% SDS extract; monoclonal antibody at 2 ug/ml as primary antibody
T8 construct: mature; Endogenous protein on Western blot or in solution (IP); also called ApoE full-length protein

[5] = molecular target: T3, G200 N-terminal neo-epitope peptide …; assay: direct ELISA; proteins coated at 0.1 uM, BSA peptides at 1 ug/ml; antibody in 3-fold dilutions from 3000 ng/ml; blank reduced OD 450 nm
Protocol: as §1, §2

[6] = molecular target: T9, recombinant full-length ApoE4 (aa 1-299; SEQ ID NO:45; Abcam cat. no. ab50243) (human, UniProt P02649 19-317); assay: as above
T9 construct: Bought protein; also called recombinant ApoE4 full-length protein
Protocol: as §1, §2

[7] = molecular target: T4, A199 N-terminal neo-epitope peptide …; assay: direct ELISA after limiting dilution
[8] = molecular target: T10, recombinant C-terminal ApoE fragment A199-HIS (ApoE-A199-H299-10xHIS) (human, UniProt P02649 217-317); assay: direct ELISA, A199-HIS coated at 0.1 µM
T10 construct: also called A199-HIS fragment
Protocol: (§3) Selectivity evaluation of purified monoclonal antibodies by direct ELISA: The direct ELISA described below was used to evaluate the binding selectivity of the purified monoclonal antibodies produced in Example 17.
as §2, with “H₂SO₄.” for “H2504.”

[9] = molecular target: T5, A199 N-terminal neo-epitope peptide …; assay: direct ELISA, A199-BSA peptide coated at 1 µg/ml
Protocol: as §3
as §2, with “H₂SO₄.” for “H2504.”

[10] = molecular target: T8, full-length ApoE in human brain extract …; assay: Western blot of AD brain RIPA 2% SDS extract; anti-A199 antibody at 2 ug/ml as primary antibody
Protocol: RIPA 2% SDS brain extract containing approximately 60 μg total protein was mixed with 2×Laemmli sample buffer, boiled for 5 min at 95° C. and loaded onto SDS-PAGE gels (Bolt™ 12% Bis-Tris Plus 10 well, Thermo Fisher, cat. no. NW00120BOX). Gels were run for 30-40 min at 180 V, after which proteins were transferred from the gels onto nitrocellulose membranes using the Trans-Blot® Turbo™ system (Bio-Rad). […] Membranes were washed and incubated for 1 h at room temperature with the detection antibody anti-mouse-800CW (LI-COR, cat. no. 925-32210) diluted 1:25000 in Intercept® PBS Blocking Buffer (LI-COR) with 0.1% TWEEN®-20. Membranes were washed and images acquired using Odyssey® FC (LI-COR).

[11] = molecular target: T3, G200 N-terminal neo-epitope peptide …; assay: direct ELISA; proteins coated at 0.1 uM, BSA peptides at 1 ug/ml; antibody in 3-fold dilutions from 3000 ng/ml; blank reduced OD 450 nm
Protocol: as §3
as §2, with “H₂SO₄.” for “H2504.”

[12] = molecular target: T9, recombinant full-length ApoE4 (aa …); assay: as above; remark: listed apart in the source
Protocol: as §3
as §2, with “H₂SO₄.” for “H2504.”

[13] = molecular target: T2, L198 N-terminal neo-epitope peptide …; assay: as above
Protocol: as §3
as §2, with “H₂SO₄.” for “H2504.”

[14] = molecular target: T6, negative control peptide …; assay: as above
Protocol: as §3
as §2, with “H₂SO₄.” for “H2504.”

T8 sequence (P02649 19-317): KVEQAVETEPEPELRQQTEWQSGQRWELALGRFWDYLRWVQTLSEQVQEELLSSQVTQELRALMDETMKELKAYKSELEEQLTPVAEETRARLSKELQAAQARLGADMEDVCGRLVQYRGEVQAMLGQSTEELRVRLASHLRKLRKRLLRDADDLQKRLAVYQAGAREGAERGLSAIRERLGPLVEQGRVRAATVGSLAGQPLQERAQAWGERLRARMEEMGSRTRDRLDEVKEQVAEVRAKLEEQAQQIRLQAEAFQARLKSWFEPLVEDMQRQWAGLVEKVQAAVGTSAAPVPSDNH
T9 sequence (P02649 19-317 C130R limits assumed): as the sequence (P02649 19-317) above, with C112R counted along it
T10 sequence (P02649 other isoform, or with tags, fused parts or gaps limits assumed): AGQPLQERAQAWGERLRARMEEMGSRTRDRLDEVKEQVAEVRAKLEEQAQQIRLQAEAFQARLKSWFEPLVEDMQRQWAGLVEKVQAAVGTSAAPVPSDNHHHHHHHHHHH
T7 sequence (P02649 other isoform, or with tags, fused parts or gaps limits assumed): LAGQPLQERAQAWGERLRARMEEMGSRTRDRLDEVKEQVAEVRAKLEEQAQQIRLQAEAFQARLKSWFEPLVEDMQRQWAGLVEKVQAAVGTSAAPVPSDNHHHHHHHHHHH

| binding result [1] | EC50 [2] [µg/mL] | EC50 [3] [µg/mL] | binding result [4] | binding result [5] | binding result [6] | binding result [7] | EC50 [8] [µg/mL] | EC50 [9] [µg/mL] | binding result [10] | binding result [11] | binding result [12] | binding result [13] | binding result [14] | Binder |
| --- | --- | --- | --- | --- | --- | --- | --- | --- | --- | --- | --- | --- | --- | --- |
| binds | 0.015 | 0.0247 | no binding (tested: 2 ug/ml (text)) | no binding (tested: 3000 ng/ml) | no binding (tested: 3000 ng/ml) |  |  |  |  |  |  |  |  | 15F8, monoclonal anti-L198 antibody (antibody, IgG2c, V domains shown) VH: EVKLEESGGGLVHPGGSMKLSCVGSGFTFSNYWMNWVRQSPEKGLEWVAQIKLRSDNYATHYAESVKGKFTISRDDAKSSVYLQMDNLRAEDTGIYYCSHHYLDSGGYFDVWGTGTSVTVSS VL: DIVMTQSQKFMSTSVGDRVSVTCKASQNVGINVAWYQDKPGQSPKGLILSASYRYSGVPDRFTGSGSGTDFTLTISNVQSEDLAEYFCQQYNSYPYTFGGGTKLEIK |
|  |  |  |  |  |  | binds | 0.0202 | 0.0051 | no binding (tested: 2 ug/ml (text)) | no binding (tested: 3000 ng/ml) | no binding (tested: 3000 ng/ml) | no binding (tested: 3000 ng/ml) | no binding (tested: 3000 ng/ml) | 36A12, monoclonal anti-A199 antibody (antibody, IgG1, V domains shown) VH: EVKLEESGGGLVQPGGSMKLSCVASGFTFSNYWMNWVRQSPEKGLEWIGEIKLKSNNYGTHYAESVKGRFTISRDDSKSSVYLQMNNLRAEDTGIYYCTRDTEVVAGAHWGQGTLVTVSA VL: NIMMTQSPSSLAVSAGEKVTMSCKSSQSVLYNSNQKNYLAWYQQKPGQSPKLLIYWASTRDSGVPDRFTGSGSGTDFTLTISSVRAEDLAVYFCQQYLSSLTFGAGTKLELK |
|  |  |  |  |  |  | binds | 0.0397 | 0.0046 | no binding (tested: 2 ug/ml (text)) | no binding (tested: 3000 ng/ml) | no binding (tested: 3000 ng/ml) | no binding (tested: 3000 ng/ml) | no binding (tested: 3000 ng/ml) | 38G9, monoclonal anti-A199 antibody (antibody, IgG1, V domains shown) VH: EVKLEESGGGLVQPGGSMKLSCVASGFTFSNYWMNWVRQSPEKGLEWVGEIKLKSNNYGTHYAESVKGRFTISRDDSKSSVYLQMNNLRAEDTGIYYCTRDTEVVAGAHWGQGTLVTVSA VL: NIMMTQSPSSLAVSAGEKVTMSCKSSQSVLYSSNQKNYLAWYQQKPGQSPKLLIYWASTRESGVPDRFTGSGSGTDFTLTISSVQAEDLAVYFCQQYLSSLTFGAGTKLELK |
